Data taken from patent US20230146533A1, “KERATIN BD-10, PREPARATION METHOD THEREFOR AND PHARMACEUTICAL COMPOSITION AND USE THEREOF” (INSTITUTE OF MATERIA MEDICA, CHINESE ACADEMY OF MEDICAL …, priority 2019, published 2023).

Legend:
[1] = tested on: yeast-induced fever model in rats; test: Yeast-induced fever model in SD rats; assay type: in vivo; settings: for Body temperature 2 hours after modeling / Body temperature 4 hours after modeling / Body temperature 6 hours after modeling / Body temperature 8 hours after modeling: 20% yeast suspension 10 ml/kg s.c., SD rats
Description: Animals: 230-260 grams of male SD rats; Medicines: yeast (OXOID LP0021), aspirin (SIGMA A2093), protein BD-10; Instruments: electronic balance (SARTORIUS BP121S type), electronic clinical thermometer (CITIZEN CT-513W type). Experiment grouping: • Normal control group; • Model group: yeast fever model; • Positive control group: Aspirin 300 mg/kg group; • Protein BD-10, 10 mg/kg group, 50 mg/kg group.
Preparation of experimental animals: After the experimental animals adapt to the experimental environment (temperature 22° C.±2° C., relative humidity 50%±2%) for 1 day. Pre-adaptation to measure rectal temperature at 8:00 and 15:00, rats were fasted and water was taken freely 12 h before experiment, and let the animal to empty its feces before measuring the rectal temperature. Apply petroleum jelly to the electronic thermometer probe before each temperature measurement. Insert the rat rectum 2 cm (can be marked at 2 cm to ensure that the depth of each insertion is consistent), and record the body temperature after the reading is stable.
Subcutaneous injection of dry yeast to replicate rat fever model: The body temperature of the rats was measured before modeling. Qualified rats with a body temperature of 36.2-37.3° C. were selected and randomly divided into groups with 8 rats in each group. After oral administration of aspirin and different doses of protein BD-10, 20% yeast suspension (10 ml/kg) was injected subcutaneously immediately, and the normal control group was injected intraperitoneally with an equal volume of normal saline. The body temperatures of the rats were monitored after 2 hours for a total of 8 hours.
According to the body temperature measured at each time point on the day of the experiment, calculate the mean, standard deviation and standard error of the body temperature of each group of rats. The data of each group was compared with TTEST, and P<0.05 was considered as a significant difference.

[2] = tested on: PTZ-induced epilepsy in mice; test: Pentylenetetrazole (PTZ) induced epilepsy in mice; assay type: in vivo, ICR mice; settings: for Grade IV seizure rate / mortality rate / Grade III seizure incubation period / Grade IV seizure incubation period / Cases of deaths / Cases of Grade IV: PTZ 65 mg/kg i.p.; for Grade IV seizure rate / mortality rate: 10 mice; for Grade III seizure incubation period / Grade IV seizure incubation period: mean ± SEM; for Grade IV seizure incubation period: mice not reaching Grade IV recorded as maximum 900 seconds; for Cases of deaths / Cases of Grade IV: of 10 mice; for Cases of Grade IV: 15 minutes observation
Description: Medicines: Pentylenetetrazol (PTZ), Retigabine, Protein BD-10.
Experiment grouping: • Model group; • Retigabine 60 mg/kg group; • Protein BD-10, 50 mg/kg group, 200 mg/kg group;
The drug was administered once in the afternoon the day before modeling, On the day of modeling, PTZ-65 mg/kg (modeling agent) was injected intraperitoneal 1 hour after the test drug was administered intragastrically, and the positive drug can be administered once half an hour before modeling. Continue to observe for 15 minutes after injection of PTZ.
Observation index: (1)Seizure situation: the time of seizures from Grade III to Grade VI; (2)Death situation
Seizure grade: Refer to Racine grading standard: Grade 0: No response; Grade I: manifested as twitching of facial muscles or the corners of the mouth; Grade II: can nod; Grade III: twitching of one limb; Grade IV: rigidity or body twitching; Grade V: generalized epilepsy (generalized tonic seizures).
Count the cases of seizures and deaths in each group of mice in the experiment; Grade III and IV incubation period. The incubation period of mice that have not attacked to Grade IV is recorded as the maximum of 900 seconds. Chi-square test was used for statistics of the number of cases. Calculate the mean and standard error of the incubation period. Use TTEST to compare the model group with other groups, and P<0.05 is considered as a significant difference.

[3] = tested on: phenol red excretion in mice; test: Expectorant test, phenol red excretion method in mice; assay type: in vivo, ICR mice; settings: for Phenol red excretion: 2.5% phenol red i.p. one hour later, trachea after 30 minutes, X ± SEM
Description: Animals: male ICR mice; Drugs and reagents: Mucosolvan (ambroxol hydrochloride tablets), phenol red, sodium bicarbonate, protein BD-10; Instruments: centrifuge (Sigma-3K15 type), balance (XS105DU type), Microplate tester (BIO-TEK type). Experiment grouping: • Solvent control group; • Mucosolvan 30 mg/kg group; • Protein BD-10, 20 mg/kg group, 50 mg/kg group.
The animals were fasted and water was taken freely 16 hours before the experiment. Orally administered Mucosolvan and different doses of protein BD-10 (administration volume 10 ml/kg) in groups, and the solvent control group was given the same volume of distilled water. One hour later, 2.5% phenol red solution was injected intraperitoneally. Mice were sacrificed by neck dislocation after 30 minutes. Take a trachea from below the thyroid cartilage to the branch of the trachea, and put the trachea into 3 ml 5% NaHCO3 solution and let it stand for 3 hours. Take 1 ml of the supernatant and centrifuge at 3000 rpm for 5 minutes. Measure and record the absorbance at 546 nm. According to the standard curve of phenol red, the excretion of phenol red was calculated.
Record the time point of oral administration, the time point of intraperitoneal injection of 2.5% phenol red solution, and the time point of taking the trachea respectively; The absorbance of each group of samples was measured by the microplate reader at 546 nm, Calculate the excretion of phenol red according to the standard curve of phenol red. Calculate the mean and standard error of the data in each group, and use TTEST to compare the solvent control group with other groups, and P<0.05 is considered as a significant difference.

B1: BD-10: recombinant keratin with amino acid sequence SEQ ID NO:1, expressed in E. coli inclusion bodies, band around 55 kD (protein, listed as Bos taurus)
chain: MSCRSYRISPGYSVTRTFSSCSAVAPKTGSRCCITAAPYRGVSCYRGLTGFGSRSVSALGSCGPRIAVGGFRAGSCNRSFGYRSGGVGGLSPPCITTVSVNESLLTPLNLEIDPNAQCVKHEEKEQIKNLNSRFAAFIDKVRFLEQQNKLLETKWQFYQNQRCCESNLEPLFNGYIETLRREAEHVEADGGRLASELNHVQEVLEGYKKKYEEEVALRATAENEFVVLKKDVDCAYLRKSDLEANVEALVEESNFLKRLYDEEIQILNAHISDTSVIVKMDNSRDLNMDCVVAEIKAQYDDIASRSRAEAESWYRNKCEEMKATVIRHGETLRRTKEEINELNRIIQRLTAEIENAKCQRTKLEAAVAEAEQQGEAALNDARCKLAGLEEALQKAKQDMACLLKEYQEVMNSKLGLDIEIATYRRLLEGEEQRLCEGVGSVNVCVSSSRGGVTCGGLTYSTTAGRQIASGPVATGGSITVLAPDSCVPCQPRASSFSCGSSRSVRFA
Body temperature 2 hours after modeling ([1]; BD-10 10 mg/kg oral): 36.8 ± 0.05 °C
Body temperature 4 hours after modeling ([1]; BD-10 10 mg/kg oral): 37.2 ± 0.1 °C
Body temperature 6 hours after modeling ([1]; BD-10 10 mg/kg oral): 37.4 ± 0.1 °C
Body temperature 8 hours after modeling ([1]; BD-10 10 mg/kg oral): 37.5 ± 0.1 °C
Body temperature 2 hours after modeling ([1]; BD-10 50 mg/kg oral): 37.0 ± 0.1 °C
Body temperature 4 hours after modeling ([1]; BD-10 50 mg/kg oral): 37.4 ± 0.04 °C
Body temperature 6 hours after modeling ([1]; BD-10 50 mg/kg oral): 37.4 ± 0.01 °C
Body temperature 8 hours after modeling ([1]; BD-10 50 mg/kg oral): 37.4 ± 0.09 °C
Effect on increase in body temperature (in words, summary) ([1]; BD-10, dose not stated, 2, 4, 6 and 8 hours after modeling): can significantly inhibit the increase in body temperature
Effect on body temperature of model rats (in words) ([1]; different doses of BD-10 (10, 50 mg/kg), most time points after modeling, vs model group P<0.05): can inhibit the increase in body temperature of model rats to varying degrees
Grade IV seizure rate ([2]; BD-10 50 mg/kg intragastric): 80%
mortality rate ([2]; BD-10 50 mg/kg intragastric): 0%
Grade III seizure incubation period ([2]; BD-10 50 mg/kg intragastric): 63 ± 2 s
Grade IV seizure incubation period ([2]; BD-10 50 mg/kg intragastric): 296 ± 106 s
Cases of deaths ([2]; BD-10 50 mg/kg intragastric): 0
Cases of Grade IV ([2]; BD-10 50 mg/kg intragastric): 8
Grade IV seizure rate ([2]; BD-10 200 mg/kg intragastric): 70%
mortality rate ([2]; BD-10 200 mg/kg intragastric): 0%
Grade III seizure incubation period ([2]; BD-10 200 mg/kg intragastric): 81 ± 9 s
Grade IV seizure incubation period ([2]; BD-10 200 mg/kg intragastric): 359 ± 120 s
Cases of deaths ([2]; BD-10 200 mg/kg intragastric): 0
Cases of Grade IV ([2]; BD-10 200 mg/kg intragastric): 7
Effect on incubation period of Grade IV epilepsy (in words) ([2]; BD-10, PTZ model, no statistical difference compared with the model group): has a tendency to extend the incubation period
Effect on excretion of phenol red (in words) ([3]; BD-10 20 mg/kg and 50 mg/kg dose groups, vs solvent control group P<0.05): significantly increased the excretion of phenol red
Phenol red excretion ([3]; BD-10 20 mg/kg oral): 0.746 ± 0.035 µg/mL
Phenol red excretion ([3]; BD-10 50 mg/kg oral): 0.668 ± 0.063 µg/mL
Expectorant effect (in words, summary) ([3]; BD-10, dose not stated): has obvious expectorant effect
